In paper PMC4066659:

Biological target: assembled microtubules
Experiment: co-sedimentation

“His6-Eg5[Ser1033Asp] (baculovirus) (from UniProt P52732 1-1056) (natural protein)” showed a percent of wildtype Eg5 recovered in the microtubule pellet of 42%.

For “His6-Eg5[Thr926Ala] (baculovirus) (from UniProt P52732 1-1056) (natural protein)”, the percent of wildtype Eg5 recovered in the microtubule pellet was 28%.
